B1: Isocitrate dehydrogenase kinase/phosphatase (Escherichia coli (strain K12)), P11071 (parent)
chain: MPRGLELLIAQTILQGFDAQYGRFLEVTSGAQQRFEQADWHAVQQAMKNRIHLYDHHVGLVVEQLRCITNGQSTDAAFLLRVKEHYTRLLPDYPRFEIAESFFNSVYCRLFDHRSLTPERLFIFSSQPERRFRTIPRPLAKDFHPDHGWESLLMRVISDLPLRLRWQNKSRDIHYIIRHLTETLGTDNLAESHLQVANELFYRNKAAWLVGKLITPSGTLPFLLPIHQTDDGELFIDTCLTTTAEASIVFGFARSYFMVYAPLPAALVEWLREILPGKTTAELYMAIGCQKHAKTESYREYLVYLQGCNEQFIEAPGIRGMVMLVFTLPGFDRVFKVIKDRFAPQKEMSAAHVRACYQLVKEHDRVGRMADTQEFENFVLEKRHISPALMELLLQEAAEKITDLGEQIVIRHLYIERRMVPLNIWLEQVEGQQLRDAIEEYGNAIRQLAAANIFPGDMLFKNFGVTRHGRVVFYDYDEICYMTEVNFRDIPPPRYPEDELASEPWYSVSPGDVFPEEFRHWLCADPRIGPLFEEMHADLFRADYWRALQNRIREGHVEDVYAYRRRQRFSVRYGEMLF
partner: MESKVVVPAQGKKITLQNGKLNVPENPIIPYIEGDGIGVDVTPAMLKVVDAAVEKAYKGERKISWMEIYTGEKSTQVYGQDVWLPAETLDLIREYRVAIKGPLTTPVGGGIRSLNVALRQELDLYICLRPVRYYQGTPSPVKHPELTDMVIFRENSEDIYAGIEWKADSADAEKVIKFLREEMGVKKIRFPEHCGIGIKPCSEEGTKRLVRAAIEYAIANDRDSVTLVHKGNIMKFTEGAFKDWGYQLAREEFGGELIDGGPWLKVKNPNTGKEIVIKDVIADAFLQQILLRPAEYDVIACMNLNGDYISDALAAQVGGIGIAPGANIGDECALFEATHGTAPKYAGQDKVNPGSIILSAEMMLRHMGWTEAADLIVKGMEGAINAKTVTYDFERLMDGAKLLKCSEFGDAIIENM

Variants of: B1
Settings: with idh_ecoli icd

| effect of a mutation on the interaction | Variant |
| --- | --- |
| disrupting interaction | MPRGLELLIAQTILQGFDAQYGRFLEVTSGAQQRFEQADWHAVQQAMKNRIHLYDHHVGLVVEQLRCITNGQSTDAAFLLRVKEHYTRLLPDYPRFEIAESFFNSVYCRLFDHRSLTPERLFIFSSQPERRFRTIPRPLAKDFHPDHGWESLLMRVISDLPLRLRWQNKSRDIHYIIRHLTETLGTDNLAESHLQVANELFYRNKAAWLVGKLITPSGTLPFLLPIHQTDDGELFIDTCLTTTAEASIVFGFARSYFMVYAPLPAALVEWLREILPGKTTAELYMAIGCQKHAKTESYREYLVYLQGCNEQFIEAPGIRGMVMLVFTLPGFDRVFKVIKDRFAPQKEMSAAHVRACYQLVKEHDRVGRMADTQEFENFVLEKRHISPALMELLLQEAAEKITDLGEQIVIRHLYIERRMVPLNIWLEQVEGQQLRDAIEEYGNAIRQLAAANIFPGDMLFKNFGVTRHGRVVFYDYDEICYMTEVNFRDIPPPRYPKDKLASEPWYSVSPGDVFPEEFRHWLCADPRIGPLFEEMHADLFRADYWRALQNRIREGHVEDVYAYRRRQRFSVRYGEMLF [E497K;E499K] |
| disrupting interaction | MPRGLELLIAQTILQGFDAQYGRFLEVTSGAQQRFEQADWHAVQQAMKNRIHLYDHHVGLVVEQLRCITNGQSTDAAFLLRVKEHYTRLLPDYPRFEIAESFFNSVYCRLFDHRSLTPERLFIFSSQPERRFRTIPRPLAKDFHPDHGWESLLMRVISDLPLRLRWQNKSRDIHYIIRHLTETLGTDNLAESHLQVANELFYRNKAAWLVGKLITPSGTLPFLLPIHQTDDGELFIDTCLTTTAEASIVFGFARSYFMVYAPLPAALVEWLREILPGKTTAELYMAIGCQKHAKTESYREYLVYLQGCNEQFIEAPGIRGMVMLVFTLPGFDRVFKVIKDRFAPQKEMSAAHVRACYQLVKEHDRVGRMADTQEFENFVLEKRHISPALMELLLQEAAEKITDLGEQIVIRHLYIERRMVPLNIWLEQVEGQQLRDAIEEYGNAIRQLAAANIFPGDMLFKNFGVTRHGRVVFYAYDEICYMTEVNFRDIPPPRYPEDELASEPWYSVSPGDVFPEEFRHWLCADPRIGPLFEEMHADLFRADYWRALQNRIREGHVEDVYAYRRRQRFSVRYGEMLF [D475A] |

The next lines start with the variant.

| Variant | effect of a mutation on the interaction |
| --- | --- |
| MPRGLELLIAQTILQGFDAQYGRFLEVTSGAQQRFEQADWHAVQQAMKNRIHLYDHHVGLVVEQLRCITNGQSTDAAFLLRVKEHYTRLLPDYPRFEIAESFFNSVYCRLFDHRSLTPERLFIFSSQPERRFRTIPRPLAKDFHPDHGWESLLMRVISDLPLRLRWQNKSRDIHYIIRHLTETLGTDNLAESHLQVANELFYRNKAAWLVGKLITPSGTLPFLLPIHQTDDGELFIDTCLTTTAEASIVFGFARSYFMVYAPLPAALVEWLREILPGKTTAELYMAIGCQKHAKTESYREYLVYLQGCNEQFIEAPGIRGMVMLVFTLPGFDRVFKVIKDRFAPQKEMSAAHVRACYQLVKEHDRVGRMADTQEFENFVLEKRHISPALMELLLQEAAEKITDLGEQIVIRHLYIERRMVPLNIWLEQVEGQQLRDAIEEYGNAIRQLAAANIFPGDMLFKAFGVTRHGRVVFYDYDEICYMTEVNFRDIPPPRYPEDELASEPWYSVSPGDVFPEEFRHWLCADPRIGPLFEEMHADLFRADYWRALQNRIREGHVEDVYAYRRRQRFSVRYGEMLF [N462A] | disrupting interaction |
| MPRGLELLIAQTILQGFDAQYGRFLEVTSGAQQRFEQADWHAVQQAMKNRIHLYDHHVGLVVEQLRCITNGQSTDAAFLLRVKEHYTRLLPDYPRFEIAESFFNSVYCRLFDHRSLTPERLFIFSSQPERRFRTIPRPLAKDFHPDHGWESLLMRVISDLPLRLRWQNKSRDIHYIIRHLTETLGTDNLAESHLQVANELFYRNKAAWLVGKLITPSGTLPFLLPIHQTDDGELFIDTCLTTTAEASIVFGFARSYFMVYAPLPAALVEWLREILPGKTTAELYMAIGCQKHAKTESYREYLVYLQGCNEQFIEAPGIRGMVMLVFTLPGFDRVFAVIKDRFAPQKEMSAAHVRACYQLVKEHDRVGRMADTQEFENFVLEKRHISPALMELLLQEAAEKITDLGEQIVIRHLYIERRMVPLNIWLEQVEGQQLRDAIEEYGNAIRQLAAANIFPGDMLFKNFGVTRHGRVVFYDYDEICYMTEVNFRDIPPPRYPEDELASEPWYSVSPGDVFPEEFRHWLCADPRIGPLFEEMHADLFRADYWRALQNRIREGHVEDVYAYRRRQRFSVRYGEMLF [K336A] | disrupting interaction |

Variants of: B1
Settings: with idh_ecoli icd
Remark: another data set of the same source

| effect of a mutation on the interaction | Variant |
| --- | --- |
| disrupting interaction | MPRGLELLIAQTILQGFDAQYGRFLEVTSGAQQRFEQADWHAVQQAMKNRIHLYDHHVGLVVEQLRCITNGQSTDAAFLLRVKEHYTRLLPDYPRFEIAESFFNSVYCRLFDHRSLTPERLFIFSSQPERRFRTIPRPLAKDFHPDHGWESLLMRVISDLPLRLRWQNKSRDIHYIIRHLTETLGTDNLAESHLQVANELFYRNKAAWLVGKLITPSGTLPFLLPIHQTDDGELFIDTCLTTTAEASIVFGFARSYFMVYAPLPAALVEWLREILPGKTTAELYMAIGCQKHAKTESYREYLVYLQGCNEQFIEAPGIRGMVMLVFTLPGFDRVFKVIKDRFAPQEEMSAAHVRACYQLVKEHDRVGRMADTQEFENFVLEKRHISPALMELLLQEAAEKITDLGEQIVIRHLYIERRMVPLNIWLEQVEGQQLRDAIEEYGNAIRQLAAANIFPGDMLFKNFGVTRHGRVVFYDYDEICYMTEVNFRDIPPPRYPEDELASEPWYSVSPGDVFPEEFRHWLCADPRIGPLFEEMHADLFRADYWRALQNRIREGHVEDVYAYRRRQRFSVRYGEMLF [K346E] |
| disrupting interaction | MPRGLELLIAQTILQGFDAQYGRFLEVTSGAQQRFEQADWHAVQQAMKNRIHLYDHHVGLVVEQLRCITNGQSTDAAFLLRVKEHYTRLLPDYPRFEIAESFFNSVYCRLFDHRSLTPERLFIFSSQPERRFRTIPRPLAKDFHPDHGWESLLMRVISDLPLRLRWQNKSRDIHYIIRHLTETLGTDNLAESHLQVANELFYRNKAAWLVGKLITPSGTLPFLLPIHQTDDGELFIDTCLTTTAEASIVFGFARSYFMVYAPLPAALVEWLREILPGKTTAELYMAIGCQKHAKTESYREYLVYLQGCNEQFIEAPGIRGMVMLVFTLPGFDRVFKVIKDRFAPQKEMSAAHVRACYQLVKEHDRVGRMADTQEFENFVLEKRHISPALMELLLQEAAEKITDLGEQIVIRHLYIERRMVPLNIWLEQVEGQQLRDAIEEYGNAIRQLAAANIFPGDMLFKNFGVTRHGRVVFYDYAEICYMTEVNFRDIPPPRYPEDELASEPWYSVSPGDVFPEEFRHWLCADPRIGPLFEEMHADLFRADYWRALQNRIREGHVEDVYAYRRRQRFSVRYGEMLF [D477A] |
